Reference: article PMC3672139, “Aptamer Selection Based on G4-Forming Promoter Region”

How the values were obtained:
VEGF165 = VEGF165 (human, UniProt P15692-4 27-191); assay: SPR; 10 mM Tris-HCl, 150 mM NaCl, 5 mM KCl, pH 7.4; EMSA room temperature 30 min, 12% PAGE in TBE; SPR 25 C (RB1 SPR with 650 mM NaCl); details: protein: recombinant, chain copies: 2
PDGF-AA = PDGF-AA (human, UniProt P04085 87-211); assay: as above; details: protein: recombinant, chain copies: 2
VEGF165, human = VEGF165, human (Homo sapiens (Human), UniProt P15692 27-191); assay: SPR; 10 mM Tris-HCl pH 7.4, 150 mM NaCl, 5 mM KCl, 25 C; protein amine-coupled on CM5; details: chain copies: 2
PDGF-AA, human = PDGF-AA, human (Homo sapiens (Human), UniProt P04085 87-211); assay: as above; details: chain copies: 2
[1] = target: c-KIT intracellular domain (human, UniProt P10721 544-976); assay: EMSA; 10 mM Tris-HCl, 150 mM NaCl, 5 mM KCl, pH 7.4; EMSA room temperature 30 min, 12% PAGE in TBE; SPR 25 C (RB1 SPR with 650 mM NaCl); details: protein: recombinant; label: 5'-FITC; G4
VEGF121 = VEGF121 (human, UniProt P15692-9 27-147); assay: as above; details: protein: recombinant, chain copies: 2
VEGF121, human = VEGF121, human (Homo sapiens (Human), UniProt P15692 27-147); assay: EMSA; 2.6 uM VEGF121; details: chain copies: 2
RB1, human = target: T1, RB1, human (Homo sapiens (Human), UniProt P06400); assay: SPR; 10 mM Tris-HCl pH 7.4, 650 mM NaCl, 5 mM KCl, 25 C; DNA on SA chip, Scatchard; details: label: 5'-biotin
T1 sequence: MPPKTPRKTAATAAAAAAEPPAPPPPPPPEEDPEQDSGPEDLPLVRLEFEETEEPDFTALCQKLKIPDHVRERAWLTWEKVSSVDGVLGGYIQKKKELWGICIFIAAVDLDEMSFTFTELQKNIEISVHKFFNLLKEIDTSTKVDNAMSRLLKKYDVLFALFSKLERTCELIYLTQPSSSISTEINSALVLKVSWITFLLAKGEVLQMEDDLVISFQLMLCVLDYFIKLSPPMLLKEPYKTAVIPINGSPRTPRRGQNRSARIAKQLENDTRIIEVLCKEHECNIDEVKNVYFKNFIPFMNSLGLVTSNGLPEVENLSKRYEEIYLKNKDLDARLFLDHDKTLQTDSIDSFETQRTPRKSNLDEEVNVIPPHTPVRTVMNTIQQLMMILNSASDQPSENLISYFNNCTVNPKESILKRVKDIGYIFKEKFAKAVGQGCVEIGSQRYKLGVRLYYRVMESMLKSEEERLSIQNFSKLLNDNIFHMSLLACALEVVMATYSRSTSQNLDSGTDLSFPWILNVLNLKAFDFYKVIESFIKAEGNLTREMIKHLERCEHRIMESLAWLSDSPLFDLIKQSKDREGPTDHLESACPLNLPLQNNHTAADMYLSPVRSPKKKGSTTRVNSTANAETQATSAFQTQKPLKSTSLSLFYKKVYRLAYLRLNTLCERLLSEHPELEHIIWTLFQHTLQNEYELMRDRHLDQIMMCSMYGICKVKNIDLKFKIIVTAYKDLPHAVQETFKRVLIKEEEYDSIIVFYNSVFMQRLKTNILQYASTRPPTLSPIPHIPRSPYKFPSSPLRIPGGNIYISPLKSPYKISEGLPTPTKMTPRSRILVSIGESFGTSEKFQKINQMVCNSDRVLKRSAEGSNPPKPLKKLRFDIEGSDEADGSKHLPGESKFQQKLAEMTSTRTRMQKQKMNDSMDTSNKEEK

[2] = label: none (SPR), not expected to form G4
[3] = label: 5'-TAMRA (gel shift), 5'-biotin (SPR to RB1), antiparallel G4
[4] = label: 5'-TAMRA (gel shift), parallel G4, monomeric and multimeric bands
[5] = label: 5'-FITC (gel shift), none (SPR), parallel G4

VEGF121, sequence (P15692 other isoform, or with tags, fused parts or gaps): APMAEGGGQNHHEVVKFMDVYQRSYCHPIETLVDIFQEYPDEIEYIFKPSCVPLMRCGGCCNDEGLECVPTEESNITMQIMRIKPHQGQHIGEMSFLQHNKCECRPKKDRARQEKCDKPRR
VEGF165, human, sequence (P15692 other isoform, or with tags, fused parts or gaps): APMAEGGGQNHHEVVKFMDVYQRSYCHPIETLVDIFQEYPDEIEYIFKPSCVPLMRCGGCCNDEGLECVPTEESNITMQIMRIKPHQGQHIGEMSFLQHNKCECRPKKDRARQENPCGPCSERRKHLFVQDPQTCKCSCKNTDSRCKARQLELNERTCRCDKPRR
c-KIT intracellular domain, sequence (P10721 544-976): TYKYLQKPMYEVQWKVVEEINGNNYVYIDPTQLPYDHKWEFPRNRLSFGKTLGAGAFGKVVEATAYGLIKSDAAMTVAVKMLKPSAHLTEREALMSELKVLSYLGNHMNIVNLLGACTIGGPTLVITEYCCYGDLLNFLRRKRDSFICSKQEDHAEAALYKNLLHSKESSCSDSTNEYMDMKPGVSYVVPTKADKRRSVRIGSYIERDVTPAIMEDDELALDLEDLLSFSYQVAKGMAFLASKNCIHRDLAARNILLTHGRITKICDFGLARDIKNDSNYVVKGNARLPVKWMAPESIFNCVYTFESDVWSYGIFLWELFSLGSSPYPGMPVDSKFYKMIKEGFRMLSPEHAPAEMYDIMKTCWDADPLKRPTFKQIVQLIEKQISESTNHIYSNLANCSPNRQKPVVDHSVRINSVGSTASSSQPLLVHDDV

## GTTTCTTTCCGGTTTCGTTTTCCCGGCGGGGCGG (ssDNA) [VEGFA G4 Mut.]
VEGF165; [2]
  binding result: no binding

## GGTTGGTGTGGTTGG (structured_DNA) [TBA (15-mer thrombin-binding aptamer)]
VEGF165; label: none, G4
  binding result: no binding
PDGF-AA; label: none, G4
  binding result: no binding

## GGTTGGTGTGGTTGG (structured_DNA, G-quadruplex) [TBA]
VEGF165, human
  binding result: no binding
PDGF-AA, human
  binding result: no binding

## CGGGCGGGCGCGAGGGAGGGG (structured_DNA) [c-KIT G4-1]
[1]
  binding result: no binding

## CGGGGGGTTTTGGGCGGC (structured_DNA)
VEGF165; [3]
  Kd: 300 nM
PDGF-AA; [3]
  binding result: no binding
VEGF121; [3]
  binding result: no binding

## AGGGAGGGCGCTGGGAGGAGGG (structured_DNA) [c-KIT G4-2]
[1]
  binding result: no binding

## GGAGGCTTTTTTTTTTTTTCTTTTTCTTTTTCTTTTTATTTTCGCGGC (ssDNA) [PDGFA G4 Mut.]
PDGF-AA; [2]
  binding result: no binding

## CGGGGGGTTTTGGGCGGC (structured_DNA, G-quadruplex (promoter-derived))
VEGF165, human
  Kd: 300 nM
PDGF-AA, human
  binding result: no binding
VEGF121, human; label: TAMRA
  binding result: no binding

## CGTTTTGTTTTGGGCGGC (ssDNA) [RB1 G4 mutant]
RB1, human
  binding result: no binding

## GGAGGCGGGGGGGGGGGGGCGGGGGCGGGGGCGGGGGAGGGGCGCGGC (structured_DNA)
VEGF165; [4]
  Kd: 10 nM
VEGF121; [4]
  binding result: no binding

## GGAGGCGGGGGGGGGGGGGCGGGGGCGGGGGCGGGGGAGGGGCGCGGC (structured_DNA, G-quadruplex (promoter-derived))
VEGF165, human
  Kd: 10 nM
VEGF121, human; label: TAMRA
  binding result: no binding

## GGGGCGGGCCGGGGGCGGGGTCCCGGCGGGGCGG (structured_DNA)
VEGF165; [5]
  Kd: 170 nM
PDGF-AA; [5]
  binding result: no binding
VEGF121; [5]
  binding result: no binding

## GGGGCGGGCCGGGGGCGGGGTCCCGGCGGGGCGG (structured_DNA, G-quadruplex (promoter-derived))
PDGF-AA, human
  binding result: no binding
VEGF121, human; label: FITC
  binding result: no binding
